Results as given in publication PMC5383425, “Differential CLE peptide perception by plant receptors implicated from structural and functional analyses of TDIF-TDR interactions” (PLoS ONE, 2017).
Square brackets hold non-standard residues; d marks the D form. Ends that are not written are not given here. Hyp = O=C(O)[C@@H]1C[C@@H](O)CN1

What was measured:
Assay in all cases: ITC; 0.5–1 mM peptide titrated into 10–40 μM ecdTDR; 25°C; 10 mM sodium citrate, 100 mM NaCl, pH 5.5; fitted to one set of binding sites; MicroCal Auto-iTC200
Conditions in all cases: both partners purified
ecdTDR R138A mutant = molecular target: T1, ecdTDR R138A mutant (Arabidopsis thaliana, UniProt Q9FII5 30-642, R138A)
T1 construct: TDR/PXY of A. thaliana, extracellular domain, residues 30-642; source: High Five insect cells (baculovirus), secreted, purified as the wild type (Ni-NTA, size-exclusion chromatography)
T1 sequence (looked up): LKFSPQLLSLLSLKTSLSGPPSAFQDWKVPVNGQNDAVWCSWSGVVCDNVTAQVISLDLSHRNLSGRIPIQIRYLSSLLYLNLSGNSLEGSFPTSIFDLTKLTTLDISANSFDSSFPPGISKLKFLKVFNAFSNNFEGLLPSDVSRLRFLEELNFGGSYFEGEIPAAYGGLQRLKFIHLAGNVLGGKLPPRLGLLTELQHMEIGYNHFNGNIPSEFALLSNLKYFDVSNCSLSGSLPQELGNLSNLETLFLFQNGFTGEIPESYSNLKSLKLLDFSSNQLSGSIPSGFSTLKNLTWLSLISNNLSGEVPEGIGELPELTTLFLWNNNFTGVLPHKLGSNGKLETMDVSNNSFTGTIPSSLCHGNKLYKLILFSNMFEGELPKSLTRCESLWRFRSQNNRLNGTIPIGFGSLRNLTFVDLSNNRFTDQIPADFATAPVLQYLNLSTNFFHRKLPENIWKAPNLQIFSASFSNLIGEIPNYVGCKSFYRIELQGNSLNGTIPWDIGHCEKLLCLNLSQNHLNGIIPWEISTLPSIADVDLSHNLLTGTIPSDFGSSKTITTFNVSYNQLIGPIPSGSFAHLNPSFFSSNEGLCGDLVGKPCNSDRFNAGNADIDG

ecdTDR W325A mutant = molecular target: T2, ecdTDR W325A mutant (Arabidopsis thaliana, UniProt Q9FII5 30-642, single alanine substitution of W325)
T2 construct: TDR/PXY of A. thaliana, extracellular domain, residues 30-642; also called single alanine substitution of W325; source: High Five insect cells (baculovirus), secreted, purified as the wild type (Ni-NTA, size-exclusion chromatography)
T2 sequence (looked up): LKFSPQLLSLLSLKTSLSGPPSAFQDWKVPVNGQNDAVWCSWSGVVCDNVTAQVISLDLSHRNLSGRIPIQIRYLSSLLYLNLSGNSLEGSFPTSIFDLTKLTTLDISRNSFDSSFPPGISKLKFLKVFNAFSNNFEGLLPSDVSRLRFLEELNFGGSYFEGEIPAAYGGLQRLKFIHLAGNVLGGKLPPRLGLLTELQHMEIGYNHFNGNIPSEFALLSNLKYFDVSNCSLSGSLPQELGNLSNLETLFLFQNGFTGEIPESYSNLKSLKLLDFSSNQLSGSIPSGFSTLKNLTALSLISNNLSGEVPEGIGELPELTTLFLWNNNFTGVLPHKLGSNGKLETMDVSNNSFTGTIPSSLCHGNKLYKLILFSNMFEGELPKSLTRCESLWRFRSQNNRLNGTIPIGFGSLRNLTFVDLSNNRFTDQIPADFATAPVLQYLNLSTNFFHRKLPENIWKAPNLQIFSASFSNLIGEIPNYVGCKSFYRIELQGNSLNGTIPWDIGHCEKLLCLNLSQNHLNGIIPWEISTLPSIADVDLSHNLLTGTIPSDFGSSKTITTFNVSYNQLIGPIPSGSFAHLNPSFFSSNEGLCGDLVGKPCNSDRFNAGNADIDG

[1] = molecular target: T3, TDR-R421A/R423A double mutant (ecdTDR) (Arabidopsis thaliana, UniProt Q9FII5 30-642, R421A | R423A)
T3 construct: TDR/PXY of A. thaliana, extracellular domain, residues 30-642; source: High Five insect cells (baculovirus), secreted, purified as the wild type (Ni-NTA, size-exclusion chromatography)
T3 sequence (looked up): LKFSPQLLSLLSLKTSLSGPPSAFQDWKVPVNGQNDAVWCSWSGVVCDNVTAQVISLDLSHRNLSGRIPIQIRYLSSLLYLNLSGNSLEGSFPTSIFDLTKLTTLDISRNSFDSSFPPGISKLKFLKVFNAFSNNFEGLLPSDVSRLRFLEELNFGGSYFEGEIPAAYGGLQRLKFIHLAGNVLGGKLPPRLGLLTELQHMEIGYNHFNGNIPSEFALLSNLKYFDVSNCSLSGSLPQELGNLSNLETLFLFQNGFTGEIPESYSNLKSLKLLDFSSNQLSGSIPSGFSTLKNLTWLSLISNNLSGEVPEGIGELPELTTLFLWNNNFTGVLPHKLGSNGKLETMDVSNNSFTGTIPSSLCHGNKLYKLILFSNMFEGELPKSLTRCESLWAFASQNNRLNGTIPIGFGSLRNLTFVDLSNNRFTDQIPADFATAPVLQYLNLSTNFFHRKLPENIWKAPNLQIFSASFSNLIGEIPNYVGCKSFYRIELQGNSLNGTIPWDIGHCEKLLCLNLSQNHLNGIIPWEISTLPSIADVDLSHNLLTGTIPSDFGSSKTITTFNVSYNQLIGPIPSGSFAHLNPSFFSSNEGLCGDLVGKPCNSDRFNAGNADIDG

B1: Tracheary Element Differentiation Inhibitory Factor (TDIF) peptide (peptide)
peptide: HEV[Hyp]SG[Hyp]NPISN
notes: TDIF, the 12-residue CLE peptide processed from CLE41 and CLE44 of A. thaliana; printed as HEV(Hyp)SG(Hyp)NPISN; numbers count on: the 12-residue peptide; CLE44 encodes the same peptide; also called wild type TDIF; wtTDIF; source: synthetic peptide (peptide 2.0)
B1 was tested, and the binding result (ecdTDR R138A mutant) was “binds”, the binding result (ecdTDR W325A mutant) was “binds” and the “fold lower affinity than wild-type ecdTDR” value [1] was 3 fold.
